{"source": "the Human Domainome abundance scans (Beltran et al. 2025)", "parents": {"B1": {"name": "Chromodomain-helicase-DNA-binding protein 4, residues 623 to 675; numbered along this chain, Q14839 (parent)", "chain": "MIHRILNHSVDKKGHVHYLIKWRDLPYDQASWESEDVEIQDYDLFKQSYWNHR"}}, "note": "± gives the uncertainty stated by the source.", "data": [{"variants_of": "B1", "assay": "abundance fitness (aPCA) (normalised: wild type 0, dead -1); higher = more abundant; growth selection in yeast, the domain comes from the species named", "settings": "Homo sapiens", "values": [{"variant": "D11A", "abundance fitness": "-0.679 ± 0.12"}, {"variant": "D11C", "abundance fitness": "-0.403 ± 0.12"}, {"variant": "D11E", "abundance fitness": "-0.499 ± 0.22"}, {"variant": "D11N", "abundance fitness": "-0.201 ± 0.085"}, {"variant": "D11I", "abundance fitness": "-0.812 ± 0.12"}, {"variant": "D11V", "abundance fitness": "-0.951 ± 0.14"}, {"variant": "Q47S", "abundance fitness": "-0.05 ± 0.081"}, {"variant": "Q47T", "abundance fitness": "0.022 ± 0.099"}, {"variant": "Q47Y", "abundance fitness": "-0.343 ± 0.16"}, {"variant": "Q47D", "abundance fitness": "-0.289 ± 0.11"}, {"variant": "Q47F", "abundance fitness": "-0.318 ± 0.13"}, {"variant": "Q47R", "abundance fitness": "-0.084 ± 0.078"}, {"variant": "L25K", "abundance fitness": "0.206 ± 0.11"}, {"variant": "L25Y", "abundance fitness": "-0.325 ± 0.12"}, {"variant": "L25S", "abundance fitness": "-0.125 ± 0.085"}, {"variant": "L25A", "abundance fitness": "-0.256 ± 0.1"}, {"variant": "L25N", "abundance fitness": "-0.143 ± 0.11"}, {"variant": "V16S", "abundance fitness": "-0.745 ± 0.13"}, {"variant": "V16G", "abundance fitness": "-0.757 ± 0.15"}, {"variant": "V16P", "abundance fitness": "-0.59 ± 0.16"}, {"variant": "V16D", "abundance fitness": "-0.611 ± 0.17"}, {"variant": "V16A", "abundance fitness": "-0.516 ± 0.12"}, {"variant": "V16Y", "abundance fitness": "-0.016 ± 0.17"}, {"variant": "V16W", "abundance fitness": "-0.715 ± 0.33"}, {"variant": "W50S", "abundance fitness": "-0.653 ± 0.11"}, {"variant": "W50F", "abundance fitness": "-0.861 ± 0.17"}, {"variant": "W50T", "abundance fitness": "-0.733 ± 0.17"}, {"variant": "W50N", "abundance fitness": "-0.766 ± 0.24"}, {"variant": "W50A", "abundance fitness": "-0.808 ± 0.13"}, {"variant": "K21W", "abundance fitness": "-0.201 ± 0.1"}, {"variant": "K21A", "abundance fitness": "-0.01 ± 0.098"}, {"variant": "K21V", "abundance fitness": "-0.463 ± 0.1"}, {"variant": "K21Y", "abundance fitness": "-0.349 ± 0.14"}, {"variant": "K21G", "abundance fitness": "-0.656 ± 0.13"}, {"variant": "K21S", "abundance fitness": "-0.406 ± 0.095"}, {"variant": "W32F", "abundance fitness": "-0.93 ± 0.18"}, {"variant": "W32C", "abundance fitness": "-0.783 ± 0.12"}, {"variant": "W32P", "abundance fitness": "-0.755 ± 0.12"}, {"variant": "W32R", "abundance fitness": "-0.724 ± 0.087"}, {"variant": "W32E", "abundance fitness": "-0.737 ± 0.17"}, {"variant": "W32A", "abundance fitness": "-0.997 ± 0.15"}, {"variant": "W32Q", "abundance fitness": "-0.75 ± 0.15"}, {"variant": "Y18H", "abundance fitness": "-0.736 ± 0.2"}, {"variant": "Y18S", "abundance fitness": "-0.681 ± 0.12"}, {"variant": "Y18A", "abundance fitness": "-0.688 ± 0.11"}, {"variant": "Y18D", "abundance fitness": "-0.963 ± 0.17"}, {"variant": "K12H", "abundance fitness": "0.01 ± 0.14"}, {"variant": "K12L", "abundance fitness": "-0.239 ± 0.099"}, {"variant": "K12E", "abundance fitness": "-0.158 ± 0.2"}, {"variant": "K12F", "abundance fitness": "-0.514 ± 0.13"}, {"variant": "K12I", "abundance fitness": "-0.136 ± 0.11"}, {"variant": "K12R", "abundance fitness": "-0.246 ± 0.12"}, {"variant": "I5A", "abundance fitness": "-0.778 ± 0.14"}, {"variant": "I5C", "abundance fitness": "-1.07 ± 0.18"}, {"variant": "I5P", "abundance fitness": "-0.522 ± 0.14"}, {"variant": "I5F", "abundance fitness": "-0.827 ± 0.16"}, {"variant": "I5Y", "abundance fitness": "-1.02 ± 0.19"}, {"variant": "D43F", "abundance fitness": "-0.394 ± 0.16"}, {"variant": "D43E", "abundance fitness": "0.099 ± 0.1"}, {"variant": "D43R", "abundance fitness": "-0.577 ± 0.1"}, {"variant": "D43Y", "abundance fitness": "-0.253 ± 0.15"}, {"variant": "Y42L", "abundance fitness": "-0.592 ± 0.31"}, {"variant": "Q40F", "abundance fitness": "-0.548 ± 0.2"}, {"variant": "Q40M", "abundance fitness": "-0.14 ± 0.099"}, {"variant": "Q40S", "abundance fitness": "-0.286 ± 0.091"}, {"variant": "Q40I", "abundance fitness": "-0.252 ± 0.14"}, {"variant": "Q40V", "abundance fitness": "-0.131 ± 0.085"}, {"variant": "Q40R", "abundance fitness": "-0.161 ± 0.083"}, {"variant": "Q40Y", "abundance fitness": "-0.504 ± 0.13"}, {"variant": "Q40A", "abundance fitness": "-0.052 ± 0.086"}, {"variant": "S31A", "abundance fitness": "-0.817 ± 0.13"}, {"variant": "S31V", "abundance fitness": "-0.61 ± 0.11"}, {"variant": "W22E", "abundance fitness": "-0.823 ± 0.2"}, {"variant": "W22T", "abundance fitness": "-0.871 ± 0.15"}, {"variant": "W22A", "abundance fitness": "-0.889 ± 0.14"}, {"variant": "W22M", "abundance fitness": "-0.447 ± 0.18"}, {"variant": "H15I", "abundance fitness": "0.029 ± 0.12"}, {"variant": "H15R", "abundance fitness": "0.057 ± 0.079"}, {"variant": "H15S", "abundance fitness": "-0.023 ± 0.089"}, {"variant": "H15V", "abundance fitness": "-0.122 ± 0.088"}, {"variant": "L44N", "abundance fitness": "-0.131 ± 0.092"}, {"variant": "L44A", "abundance fitness": "-0.014 ± 0.069"}, {"variant": "D24C", "abundance fitness": "-0.588 ± 0.13"}, {"variant": "D24Y", "abundance fitness": "-0.53 ± 0.12"}, {"variant": "D24G", "abundance fitness": "-0.115 ± 0.086"}, {"variant": "D24A", "abundance fitness": "-0.335 ± 0.12"}, {"variant": "D24L", "abundance fitness": "-0.535 ± 0.095"}, {"variant": "D24M", "abundance fitness": "-0.552 ± 0.13"}, {"variant": "R53P", "abundance fitness": "-0.481 ± 0.28"}, {"variant": "R53D", "abundance fitness": "-0.161 ± 0.26"}, {"variant": "R53S", "abundance fitness": "-0.141 ± 0.19"}, {"variant": "R53N", "abundance fitness": "-0.313 ± 0.48"}, {"variant": "V37A", "abundance fitness": "0.109 ± 0.077"}, {"variant": "V37F", "abundance fitness": "-0.166 ± 0.097"}, {"variant": "V37P", "abundance fitness": "-0.746 ± 0.11"}, {"variant": "V37C", "abundance fitness": "0.117 ± 0.1"}, {"variant": "V37K", "abundance fitness": "0.182 ± 0.14"}, {"variant": "V37W", "abundance fitness": "-0.985 ± 0.21"}, {"variant": "D41T", "abundance fitness": "-0.892 ± 0.15"}, {"variant": "D41I", "abundance fitness": "-0.929 ± 0.19"}, {"variant": "D41C", "abundance fitness": "-0.807 ± 0.14"}, {"variant": "D41Y", "abundance fitness": "-0.431 ± 0.13"}, {"variant": "D41G", "abundance fitness": "-0.283 ± 0.093"}, {"variant": "D41K", "abundance fitness": "-0.555 ± 0.14"}, {"variant": "D41Q", "abundance fitness": "-0.191 ± 0.14"}, {"variant": "M1T", "abundance fitness": "-0.117 ± 0.12"}, {"variant": "M1G", "abundance fitness": "-0.046 ± 0.25"}, {"variant": "M1N", "abundance fitness": "0.277 ± 0.17"}, {"variant": "M1Y", "abundance fitness": "0.226 ± 0.16"}, {"variant": "M1S", "abundance fitness": "-0.23 ± 0.16"}, {"variant": "M1V", "abundance fitness": "-0.015 ± 0.17"}, {"variant": "K46E", "abundance fitness": "-0.734 ± 0.16"}, {"variant": "K46A", "abundance fitness": "-0.898 ± 0.16"}, {"variant": "K46I", "abundance fitness": "-0.465 ± 0.14"}, {"variant": "K46R", "abundance fitness": "-0.796 ± 0.09"}, {"variant": "K46Q", "abundance fitness": "-0.485 ± 0.1"}, {"variant": "K46S", "abundance fitness": "-0.838 ± 0.1"}, {"variant": "S34I", "abundance fitness": "-0.852 ± 0.23"}, {"variant": "S34N", "abundance fitness": "-0.137 ± 0.18"}, {"variant": "S34R", "abundance fitness": "-0.081 ± 0.076"}, {"variant": "S34C", "abundance fitness": "0.155 ± 0.1"}, {"variant": "S34F", "abundance fitness": "-0.618 ± 0.12"}, {"variant": "K13Q", "abundance fitness": "-0.133 ± 0.11"}, {"variant": "K13P", "abundance fitness": "-0.828 ± 0.11"}, {"variant": "K13H", "abundance fitness": "-0.062 ± 0.09"}, {"variant": "K13S", "abundance fitness": "-0.098 ± 0.073"}, {"variant": "K13T", "abundance fitness": "-0.344 ± 0.088"}, {"variant": "K13V", "abundance fitness": "-0.263 ± 0.088"}, {"variant": "K13L", "abundance fitness": "-0.36 ± 0.078"}, {"variant": "K13M", "abundance fitness": "-0.162 ± 0.12"}, {"variant": "L19I", "abundance fitness": "-0.772 ± 0.46"}, {"variant": "L19S", "abundance fitness": "-0.703 ± 0.17"}, {"variant": "L19A", "abundance fitness": "-0.892 ± 0.23"}, {"variant": "L19C", "abundance fitness": "-0.924 ± 0.27"}, {"variant": "L19G", "abundance fitness": "-0.604 ± 0.17"}, {"variant": "L19W", "abundance fitness": "-0.866 ± 0.27"}, {"variant": "V10G", "abundance fitness": "-0.895 ± 0.11"}, {"variant": "V10M", "abundance fitness": "-0.495 ± 0.1"}, {"variant": "V10F", "abundance fitness": "-0.207 ± 0.11"}, {"variant": "V10N", "abundance fitness": "-0.714 ± 0.14"}, {"variant": "V10H", "abundance fitness": "-0.557 ± 0.14"}, {"variant": "V10E", "abundance fitness": "-0.447 ± 0.12"}, {"variant": "V10W", "abundance fitness": "-0.533 ± 0.13"}, {"variant": "V10R", "abundance fitness": "-0.262 ± 0.085"}]}]}
